The values that follow come from paper PMC7755189, “Phosphorylation of seryl-tRNA synthetase by ATM/ATR is essential for hypoxia-induced angiogenesis”.

The data set deals with SerRS AA (Homo sapiens, UniProt P49591 1-514, S101A;S241A). Description: EMSA; not attenuated relative to WT; EMSA: 20 mM Tris-HCl pH 8.0, 60 mM KCl, 5 mM MgCl2, 0.1 mg/mL BSA, 10 ng/uL poly(dG-dC), 1 mM DTT, 30 min, room temperature; 0.08 pmol labeled DNA; 5% native PAGE. The following applies: protein: recombinant; tags: C-terminal His6; chain copies: 2; label: 5'-32P; annealed oligonucleotides.
Chain of SerRS AA (P49591 whole entry S101A/S241A): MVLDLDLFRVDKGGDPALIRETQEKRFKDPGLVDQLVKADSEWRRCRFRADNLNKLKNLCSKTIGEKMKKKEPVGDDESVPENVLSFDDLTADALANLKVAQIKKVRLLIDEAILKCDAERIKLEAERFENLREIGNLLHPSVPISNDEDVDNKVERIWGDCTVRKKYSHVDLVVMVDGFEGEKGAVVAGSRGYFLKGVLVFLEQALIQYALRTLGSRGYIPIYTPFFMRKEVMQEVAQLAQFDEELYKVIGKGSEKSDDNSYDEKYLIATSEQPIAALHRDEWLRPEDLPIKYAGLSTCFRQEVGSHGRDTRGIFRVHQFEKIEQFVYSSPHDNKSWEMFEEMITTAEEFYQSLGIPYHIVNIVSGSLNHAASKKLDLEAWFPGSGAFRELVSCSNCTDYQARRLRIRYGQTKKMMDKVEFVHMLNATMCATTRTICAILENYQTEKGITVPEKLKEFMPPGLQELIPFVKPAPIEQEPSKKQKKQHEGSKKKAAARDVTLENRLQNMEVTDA

B1: VEGFA promoter SerRS binding site 27 bp (dsDNA)
DNA 1: GGCGGGGCGGAGCCATGCGCCCCCCCC
DNA 2: GGGGGGGGCGCATGGCTCCGCCCCGCC
As for B1, the binding result is listed as “binds”.
